Test results reported in patent US11174311B2, “Antibody against trimeric TNFα complex” (UCB BIOPHARMA SRL, priority 2016, dated 2021).
“Also recorded” adds a separate entry of the source.

Columns and labels:
soluble form of TNFα = target: T1, soluble form of TNFα (Homo sapiens, UniProt P01375); test: SPR on Biacore 4000 against immobilised soluble TNFα; assay type: binding; settings: concentration of up to 100 μM
T1 construct: the immobilised soluble form of CD40L and the soluble form of TNFα
Procedure: In another experiment, BIO8898 was tested against the immobilised soluble form of CD40L and the soluble form of TNFα by SPR on a Biacore 4000 machine.

Human TNFα [1] = target: T2, Human TNFα (Homo sapiens, UniProt P01375); test: Single cycle kinetics by surface plasmon resonance; assay type: binding; set-up: made in house
Procedure: For single cycle kinetics profiling of compound (1) to either directly immobilised TNFα or CA1974-captured TNFα surface plasmon resonance was performed at 25° C. using a BIAcore T200 (GE Healthcare). Human TNFα was tethered onto flow-channel (Fc)2 (2000 RU). CA1974 IgG (>10,000 response units) was tethered onto Fc3,4 and Fc1 blank immobilisation on a CMS Sensor Chip (GE Healthcare) via amine coupling chemistry. The surface was allowed to stabilise in HBS-P buffer (10 mM HEPES, pH 7.4, 0.15 M NaCl, 0.0005% (v/v) surfactant P20-GE Healthcare)+5% DMSO was used as the running buffer. Human TNFα was flowed over Fc4 to a capture level of ˜2,000 RU. Compound (1) was flowed over all four flow cells in series (1.875 μM, 3.75 μM, 7.5 μM and 30 μM) at 100 μl/min. Double referenced background-subtracted binding curves were produced using the T200 Evaluation software (version 1.0) following standard procedures.
Target sequence in this assay (P01375 77-233 limits assumed): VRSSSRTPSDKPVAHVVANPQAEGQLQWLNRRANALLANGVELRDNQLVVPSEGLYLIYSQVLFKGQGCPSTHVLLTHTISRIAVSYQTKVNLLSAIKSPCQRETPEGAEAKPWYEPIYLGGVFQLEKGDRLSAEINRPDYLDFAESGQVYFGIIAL

membrane-bound TNFα = test: FACS assay, engineered NS0 cell line overexpressing membrane TNFα; assay type: cell-based; settings: Fab fragments
membrane-bound TNFα, sequence (P01375 90-233 limits assumed): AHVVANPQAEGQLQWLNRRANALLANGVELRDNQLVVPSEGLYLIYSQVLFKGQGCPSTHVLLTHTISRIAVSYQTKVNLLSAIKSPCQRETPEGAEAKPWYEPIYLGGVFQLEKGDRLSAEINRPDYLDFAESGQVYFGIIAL
Procedure: An engineered NS0 cell line, which overexpresses membrane TNFα, due to knock-out of the TACE cleavage site was incubated with 0.001-10 μM compound (1) or 0.1% DMSO for 1 h at 37° C. Cells were washed, fixed and stained with antibody Fab fragments at 0.01 or 0.1 μg/ml for 1 hour on ice. (Secondary antibody was anti-mouse Fab-DyeLight488 from Jackson ImmunoResearch).

[2] = target: human TNFα complexed with compound (1) (Homo sapiens, UniProt P01375); test: Size exclusion chromatography (HPLC) of mouse Fab with TNFα-compound complex; assay type: binding
human TNFα complexed with compound (1), sequence (P01375 77-233 limits assumed, one chain of several): as the sequence (P01375 77-233 limits assumed) above

Human TNFα [3] = target: T2, Human TNFα; test: FACS assay, HEK JumpIn cells overexpressing TNF-RI, receptor-bound TNFα; assay type: cell-based; set-up: host or cells: HEK JumpIn cells (express the partner TNF-RI only); settings: antibody at 1 and 10 μg/ml
Procedure: Recombinant antibodies were also tested for binding to compound-distorted TNFα in a FACS assay using human embryonic kidney (HEK) JumpIn cells, which overexpress TNF-RI after induction with doxycycline at 1 μg/ml for 2.5 hours. HEK cells were trypsinised and incubated for 2 h in medium to allow recovery of digested TNFRI levels. Human TNFα at 2 μg/mL was pre-incubated with 40 μM compound (1) or 0.4% DMSO for 1 h at 37° C. The pre-incubation mix was added to the cells for 1 h on ice (dilution 1:4, final concentrations: 0.5 μg/mL human-TNFα+/−[…] or 0.1% DMSO). […] (Secondary antibody: anti-mouse-Alexa488), before analysis for receptor-bound TNFα.
Target sequence in this assay (P01375 77-233 limits assumed): as above
Target sequence in this assay (P19438 30-455 partner): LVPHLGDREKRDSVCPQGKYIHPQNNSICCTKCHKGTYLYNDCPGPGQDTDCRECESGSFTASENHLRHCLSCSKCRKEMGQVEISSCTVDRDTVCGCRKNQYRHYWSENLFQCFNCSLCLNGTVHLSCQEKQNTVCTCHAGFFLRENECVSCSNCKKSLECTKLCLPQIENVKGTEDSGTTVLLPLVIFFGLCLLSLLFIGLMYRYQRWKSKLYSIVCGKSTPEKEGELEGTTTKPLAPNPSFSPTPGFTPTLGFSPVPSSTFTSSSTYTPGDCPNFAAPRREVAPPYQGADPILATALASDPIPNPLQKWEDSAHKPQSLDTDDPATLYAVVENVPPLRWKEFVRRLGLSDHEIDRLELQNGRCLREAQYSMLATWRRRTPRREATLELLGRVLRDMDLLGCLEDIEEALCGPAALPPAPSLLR

T1 sequence (P01375 77-233 limits assumed): as the sequence (P01375 77-233 limits assumed) above

## O=C(NCc1cccc(-c2ccccc2)c1)c1cc(-c2cc(C(=O)NC(C(=O)O)C3CCCCC3)nc(C(=O)N3CCCC3CN3CCCC3)c2)cc(C(=O)N2CCCC2CN2CCCC2)n1 (centres unmarked) [BIO8898]
Soluble form of TNFα
  binding to TNFα: not to bind; also recorded: no binding

## Cc1ccc(C)c(Cn2c(C(O)c3ccncc3)nc3ccc(-c4cnn(C)c4)cc32)c1 (centres unmarked) [compound (1)]
Human TNFα [1]; TNFα captured via antibody CA1974
  binding kinetics profile: fast on-fast off
Human TNFα [1]; directly immobilised apo-TNF
  binding kinetics profile: slow on-slow off

B1: CA185_01979: rat-derived conformation-selective antibody to TNFα-compound complex, LCVR SEQ ID NO: 22, HCVR SEQ ID NO: 23; used as mouse IgG or mouse Fab (antibody, V domains shown)
VH: EVHLVESGPGLVKPSQSLSLTCSVTGYSITNSYWDWIRKFPGNKMEWMGYINYSGSTGYNPSLKSRISISRDTSNNQFFLQLNSITTEDTATYYCARGTYGYNAYHFDYWGRGVMVTVSS
VL: DIQMTQSPASLSASLEEIVTITCQASQDIGNWLSWYQQKPGKSPHLLIYGTTSLADGVPSRFSGSRSGTQYSLKISGLQVADIGIYVCLQAYSTPFTFGSGTKLEIK
modifications: HCVR of 1979; LCVR of 1979
notes: used as mouse IgG or mouse Fab
membrane-bound TNFα; cells incubated with 0.1% DMSO
  staining with the DMSO controls: no staining
membrane-bound TNFα; cells incubated with compound (1)
  staining / recognition of membrane TNF: only recognise TNF which has been pre-incubated with compound (1)
[2]
  stoichiometry Fab : TNFα trimer: 1 Fab: 1 TNFα trimer
Human TNFα [3]; TNFα pre-incubated with DMSO
  staining with the DMSO control: no staining
Human TNFα [3]; TNFα pre-incubated with compound (1)
  staining / recognition of receptor-bound TNFα: only recognise TNFα which has been pre-incubated with compound (1)
